Data: article PMC12051234, “NrdR in Streptococcus and Listeria spp.: DNA Helix Phase Dependence of the Bacterial Ribonucleotide Reductase Repressor”

T1: ScoNrdR (Streptomyces coelicolor, UniProt O69980 1-182)
T1 sequence: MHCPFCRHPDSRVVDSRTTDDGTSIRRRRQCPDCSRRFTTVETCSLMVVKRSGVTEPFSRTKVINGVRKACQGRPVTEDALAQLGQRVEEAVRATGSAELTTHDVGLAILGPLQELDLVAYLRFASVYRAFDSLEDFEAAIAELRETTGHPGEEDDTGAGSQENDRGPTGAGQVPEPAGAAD

T2: SpnNrdR (Streptococcus pneumoniae TIGR4, UniProt P67318 1-157)
T2 sequence: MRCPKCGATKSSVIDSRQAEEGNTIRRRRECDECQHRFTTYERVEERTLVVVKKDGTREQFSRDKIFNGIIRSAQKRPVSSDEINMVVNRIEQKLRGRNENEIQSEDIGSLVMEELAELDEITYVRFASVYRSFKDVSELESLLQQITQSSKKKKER

T3: LmoNrdR (Listeria monocytogenes serotype 1/2a …, UniProt Q8Y6W9 1-154)
T3 sequence: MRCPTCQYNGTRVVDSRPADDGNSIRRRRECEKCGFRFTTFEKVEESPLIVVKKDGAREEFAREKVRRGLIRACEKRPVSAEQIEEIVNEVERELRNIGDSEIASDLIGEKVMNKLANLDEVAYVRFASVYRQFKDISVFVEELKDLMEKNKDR

T4: EcoNrdR (Escherichia coli, UniProt P0A8D0 1-149)
T4 sequence: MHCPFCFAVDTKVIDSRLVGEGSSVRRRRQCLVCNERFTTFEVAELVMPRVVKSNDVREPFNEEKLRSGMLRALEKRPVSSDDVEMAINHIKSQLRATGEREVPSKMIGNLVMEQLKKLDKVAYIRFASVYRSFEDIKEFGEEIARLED

B1: Synt 19 bp spacer (dsDNA)
DNA 1: GCCAAACACAACATCTAGTGGTTGGATAGCGTGAAGTAGCACACAACATCTAGTGGACCTC
DNA 2: GAGGTCCACTAGATGTTGTGTGCTACTTCACGCTATCCAACCACTAGATGTTGTGTTTGGC
B2: Synt 18 bp spacer (dsDNA)
DNA 1: GCCAAACACAACATCTAGTGGTTGGATAGCGTGAAGTGCACACAACATCTAGTGGACCTC
DNA 2: GAGGTCCACTAGATGTTGTGTGCACTTCACGCTATCCAACCACTAGATGTTGTGTTTGGC
B3: Synt 26 bp spacer (dsDNA)
DNA 1: GCCAAACACAACATCTAGTGGTTGGATAGCGTGAAGTTCCACCTAGCACACAACATCTAGTGGACCTC
DNA 2: GAGGTCCACTAGATGTTGTGTGCTAGGTGGAACTTCACGCTATCCAACCACTAGATGTTGTGTTTGGC
B4: Synt 16 bp spacer (dsDNA)
DNA 1: GCCAAACACAACATCTAGTGGTTGGATAGCGTGAAGCACACAACATCTAGTGGACCTC
DNA 2: GAGGTCCACTAGATGTTGTGTGCTTCACGCTATCCAACCACTAGATGTTGTGTTTGGC
B5: Synt 13 bp spacer (dsDNA)
DNA 1: GCCAAACACAACATCTAGTGGTTGGATAGTGAGCACACAACATCTAGTGGACCTC
DNA 2: GAGGTCCACTAGATGTTGTGTGCTCACTATCCAACCACTAGATGTTGTGTTTGGC
B6: Synt 17 bp spacer (dsDNA)
DNA 1: GCCAAACACAACATCTAGTGGTTGGATAGCGTGAAGGCACACAACATCTAGTGGACCTC
DNA 2: GAGGTCCACTAGATGTTGTGTGCCTTCACGCTATCCAACCACTAGATGTTGTGTTTGGC
B7: Synt 24 bp spacer (dsDNA)
DNA 1: GCCAAACACAACATCTAGTGGTTGGATAGCGTGAATTCACCTAGCACACAACATCTAGTGGACCTC
DNA 2: GAGGTCCACTAGATGTTGTGTGCTAGGTGAATTCACGCTATCCAACCACTAGATGTTGTGTTTGGC
B8: Synt 27 bp spacer (dsDNA)
DNA 1: GCCAAACACAACATCTAGTGGTTGGATAGCGTGAAGTTACCACCTAGCACACAACATCTAGTGGACCTC
DNA 2: GAGGTCCACTAGATGTTGTGTGCTAGGTGGTAACTTCACGCTATCCAACCACTAGATGTTGTGTTTGGC
B9: Synt 20 bp spacer (dsDNA)
DNA 1: GCCAAACACAACATCTAGTGGTTGGATAGCGTGACAGTAGCACACAACATCTAGTGGACCTC
DNA 2: GAGGTCCACTAGATGTTGTGTGCTACTGTCACGCTATCCAACCACTAGATGTTGTGTTTGGC
B10: Synt 15 bp spacer (dsDNA)
DNA 1: GCCAAACACAACATCTAGTGGTTGGATAGCGTGAGCACACAACATCTAGTGGACCTC
DNA 2: GAGGTCCACTAGATGTTGTGTGCTCACGCTATCCAACCACTAGATGTTGTGTTTGGC
B11: Synt 25 bp spacer (dsDNA)
DNA 1: GCCAAACACAACATCTAGTGGTTGGATAGCGTGAAGTTCACCTAGCACACAACATCTAGTGGACCTC
DNA 2: GAGGTCCACTAGATGTTGTGTGCTAGGTGAACTTCACGCTATCCAACCACTAGATGTTGTGTTTGGC
B12: Synt 12 bp spacer (dsDNA)
DNA 1: GCCAAACACAACATCTAGTGGTTGGATAGGAGCACACAACATCTAGTGGACCTC
DNA 2: GAGGTCCACTAGATGTTGTGTGCTCCTATCCAACCACTAGATGTTGTGTTTGGC
B13: Synt 14 bp spacer (dsDNA)
DNA 1: GCCAAACACAACATCTAGTGGTTGGATAGCTGAGCACACAACATCTAGTGGACCTC
DNA 2: GAGGTCCACTAGATGTTGTGTGCTCAGCTATCCAACCACTAGATGTTGTGTTTGGC
B14: Sth nrdDG (16 bp spacer) (dsDNA)
DNA 1: TCGAAAATCAATATATAGTGGTTGAGATAAAAATATACCACAATATATTGATTTTCCT
DNA 2: AGGAAAATCAATATATTGTGGTATATTTTTATCTCAACCACTATATATTGATTTTCGA
B15: Sth nrdHEF (16 bp spacer) (dsDNA)
DNA 1: TCAAAACACAAGATATAGGGTTGTGTTTCAATACTAAACACAAAATATTGTATTCCTT
DNA 2: AAGGAATACAATATTTTGTGTTTAGTATTGAAACACAACCCTATATCTTGTGTTTTGA
B16: Eco nrdHIEF box 2 duplicated (dsDNA)
DNA 1: GTCTCCAACTACATCTAGTATGGTTGAATCTTTTTTCAACTACATCTAGTATCTCTG
DNA 2: CAGAGATACTAGATGTAGTTGAAAAAAGATTCAACCATACTAGATGTAGTTGGAGAC
B17: Eco nrdHIEF box 1 duplicated (dsDNA)
DNA 1: GTCTCTTGCTATATATTGTGTGGTTGAATCTTTTTTTTGCTATATATTGTGTCTCTG
DNA 2: CAGAGACACAATATATAGCAAAAAAAAGATTCAACCACACAATATATAGCAAGAGAC

What follows are binders tested against T1, ScoNrdR (assay: MST; dATP + ATP; MST, temperature not stated. Lmo: 25 mM Bis-Tris propane pH 6.5, 100 mM KCl, 5 mM MgCl2, 5% glycerol, 1 mM DTT, 0.05% Tween 20, one nucleotide 1 mM or two at 0.5 mM each; Spn: 25 mM HEPES pH 7.2, 250 mM NaCl, 2.5 mM MgCl2, 15% glycerol, 2 mM DTT, 0.1 mg/mL BSA, 0.05% Tween 20, 0.5 mM ATP and/or dATP; Eco: 25 mM Tris pH 8.5, 100 mM NaCl, 7 mM MgCl2, 1 mM DTT, 0.025% Tween 20, 1 mM ATP + 1 mM dATP; …). Conditions: protein: recombinant; chain copies: 4; label: 5'-Cy5 sense; blunt.

In order of falling Kd:
1. B3  4400 ± 355 nM
2. B11  4050 ± 272 nM
3. B8  3500 ± 626 nM
4. B9  2190 ± 449 nM
5. B1  1660 ± 221 nM
6. B7  763 ± 104 nM
7. B12  580 ± 79 nM
8. B2  476 ± 80 nM
9. B5  158 ± 19 nM
10. B13  154 ± 28 nM
11. B10  45 ± 13 nM
12. B4  28 ± 7 nM
13. B6  21 ± 7 nM

What follows are binders tested against T2, SpnNrdR in the same assay as above. Conditions: protein: recombinant; tags: C-terminal His6; chain copies: 4; label: 5'-Cy5 sense; blunt.

In order of rising Kd:
1. B4  41 ± 11 nM
2. B10  55 ± 14 nM
3. B6  340 ± 83 nM
4. B13  699 ± 109 nM
5. B15  800 ± 250 nM
6. B14  1150 ± 320 nM
7. B3  2910 ± 225 nM
8. B8  3190 ± 238 nM
9. B5  3940 ± 290 nM
10. B11  4370 ± 343 nM
11. B12  5060 ± 511 nM
12. B2  6600 ± 536 nM
13. B7  9200 ± 374 nM
14. B1  11600 ± 340 nM
15. B9  12300 ± 388 nM

What follows are binders tested against T3, LmoNrdR in the same assay as above. Conditions: protein: recombinant; tags: C-terminal His6; chain copies: 4; label: 5'-Cy5 sense; blunt.

In order of rising Kd:
1. B4  1 ± 0.4 nM
2. B6  1 ± 0.4 nM
3. B10  1 ± 0.2 nM
4. B13  2 ± 0.5 nM
5. B2  3 ± 0.6 nM
6. B5  11 ± 1.8 nM
7. B8  18 ± 6 nM
8. B11  25 ± 12 nM
9. B7  26 ± 3 nM
10. B12  37 ± 6 nM
11. B1  51 ± 7 nM
12. B9  122 ± 10 nM

Each binder was assayed against T4, EcoNrdR in the same assay as above. Conditions: protein: recombinant; chain copies: 4; label: 5'-Cy5 sense; blunt.

In order of rising Kd:
1. B3  24 ± 7 nM
2. B8  27 ± 8 nM
3. B6  45 ± 6 nM
4. B2  66 ± 12 nM
5. B4  82 ± 22 nM
6. B16  99 ± 33 nM
7. B5  117 ± 24 nM
8. B7  141 ± 34 nM
9. B13  169 ± 27 nM
10. B17  213 ± 40 nM
11. B11  326 ± 44 nM
12. B1  601 ± 113 nM
13. B12  1380 ± 309 nM
14. B9  3320 ± 540 nM
